Molecular target: GST-MdPP2AC (apple (Malus × domestica Borkh.))
Test: MST; GST-MdPP2AC labelled with RED-NHS dye, 100 nM, in 0.05% PBS Tween buffer; MdSnRK2.6 titrated (3.81 × 10^−4 to 25 nM as printed); Monolith NT.115

Kd: 109 nM
Substance: MdSnRK2.6-His (enzyme)

From publication PMC10243991
